Test results published in patent EP1997885A1 (AXXAM S.p.A., dated 2008).
Numbering of substitutions follows the chain as printed. In names and notes the source's numbering stands.

What was measured:
[1] = biological target: recombinant (His6)-tagged EGFP; test: size exclusion chromatography on Superdex 200, 2 mg/mL, self-association
[2] = biological target: recombinant (His6)-tagged DsRed2; test: as above
[3] = biological target: AsGFP499(S103K), recombinant his-tagged (Anemonia sulcata); test: as above
[4] = biological target: AsGFP499(S103K), recombinant his-tagged (Anemonia sulcata); test: pseudo-native SDS-PAGE, self-association
[5] = biological target: AsGFP499(S103K/R150E), recombinant his-tagged (Anemonia sulcata); test: size exclusion chromatography on Superdex 200, 2 mg/mL, self-association; second peak
[6] = biological target: AsGFP499(S103K/R150E), recombinant his-tagged (Anemonia sulcata); test: size exclusion chromatography on Superdex 200, 2 mg/mL, self-association; first peak
[7] = biological target: AsGFP499(S94T/S103K/R150K/S171N/K206R), recombinant his-tagged (Anemonia sulcata); test: size exclusion chromatography on Superdex 200, 2 mg/mL, self-association; second peak
[8] = biological target: AsGFP499(S94T/S103K/R150K/S171N/K206R), recombinant his-tagged (Anemonia sulcata); test: size exclusion chromatography on Superdex 200, 2 mg/mL, self-association; first peak
[9] = biological target: the molecule itself; test: pseudo-native SDS-PAGE, self-association

recombinant (His6)-tagged EGFP
Apparent MW [kDa] [1]: 27 kDa

recombinant (His6)-tagged DsRed2
Apparent MW [kDa] [2]: 79 kDa

B1: AsGFP499(S103K), recombinant his-tagged (protein, not shown: small tags and cut ends)
chain: MYPSIKETMRVQLSMEGSVNYHAFKCTGKGEGKPYEGTQSLNITITEGGPLPFAFDILSHAFQYGIKVFAKYPKEIPDFFKQSLPGGFSWERVSTYEDGGVLKATQETSLQGDCIICKVKVLGTNFPANGPVMQKKTCGWEPSTETVIPRDGGLLLRDTPALMLADGGHLSCFMETTYKSKKEVKLPELHFHHLRMEKLNISDDWKTVEQHESVVASYSQVPSKLGHN
Apparent MW [kDa] [3]: 39 kDa | MW on pseudo-native SDS-PAGE [4]: < 50 kDa

B2: AsGFP499(S103K/R150E), recombinant his-tagged (protein, not shown: small tags and cut ends)
chain: B1 chain with R150E
Apparent MW [kDa] [5]: 23 kDa | Apparent MW [kDa] [6]: 39 kDa

B3: AsGFP499(S94T/S103K/R150K/S171N/K206R), recombinant his-tagged (protein, not shown: small tags and cut ends)
chain: B1 chain with S94T, R150K, S171N, K206R
Apparent MW [kDa] [7]: 23 kDa | Apparent MW [kDa] [8]: 39 kDa

B4: AsGFP499(S103K/F173E) (other)
chain: B1 chain with F173E
notes: Only tested on the pseudo-native gel; reported as partly monomeric; also called AsGFP499 (S103/F173E); not shown: tag and vector-encoded residues of the bacterial expression vector
binding result [9]: binds

B5: AsGFP499(S103K/T159K/F173E), recombinant his-tagged (other)
chain: B1 chain with T159K, F173E
notes: Reported as a monomer; not shown: (His6) tag and vector-encoded residues of pET28a(+)
binding result [9]: no binding

B6: AsGFP499(S94T/S103K/T159K/F173E), recombinant his-tagged (other)
chain: B1 chain with S94T, T159K, F173E
notes: as for B5
binding result [9]: no binding
